The term stoichiometry N denotes a count of units in the complex or per binding partner. What is called Kd is the free concentration of one partner at which half of the binding sites on the other are occupied at equilibrium, for simple one-to-one binding.

Results on eight molecules are retold here after doi:10.1101/2023.11.02.565342.

For data set [1], the target named is HSP70 (Spodoptera frugiperda (endogenous in Sf9)). The experiment in a line: native MS.
Data set [2] concerns the target T1, TOPOVIBLΔC25 (monomer) (Mus musculus, UniProt J3QMY9 1-554).
T1 sequence: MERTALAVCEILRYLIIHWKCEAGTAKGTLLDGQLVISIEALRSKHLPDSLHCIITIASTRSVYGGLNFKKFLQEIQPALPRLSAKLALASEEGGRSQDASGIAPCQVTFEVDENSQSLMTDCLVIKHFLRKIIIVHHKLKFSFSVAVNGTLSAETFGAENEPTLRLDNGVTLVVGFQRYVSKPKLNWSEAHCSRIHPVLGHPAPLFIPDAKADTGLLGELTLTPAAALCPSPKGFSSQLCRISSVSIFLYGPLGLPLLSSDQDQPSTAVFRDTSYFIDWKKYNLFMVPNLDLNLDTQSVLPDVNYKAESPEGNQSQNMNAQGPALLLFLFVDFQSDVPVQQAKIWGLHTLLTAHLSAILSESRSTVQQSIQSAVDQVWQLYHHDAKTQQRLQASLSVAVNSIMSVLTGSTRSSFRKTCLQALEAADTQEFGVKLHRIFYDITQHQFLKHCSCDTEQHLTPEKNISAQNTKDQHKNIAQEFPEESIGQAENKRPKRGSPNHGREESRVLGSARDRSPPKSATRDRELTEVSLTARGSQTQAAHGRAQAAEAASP
Put plainly: fluorescence anisotropy. Background: In fluorescence polarisation assays a small probe gives low polarisation when free and higher when bound to something large.

Data set [3] has as its target T1, TOPOVIBLΔC25 (monomer). Put plainly: fluorescence anisotropy. The source holds these as a separate data set.
The target in another data set is T2, TOPOVIBLΔC25 K281E K282E (Mus musculus, UniProt J3QMY9 1-554, K281E;K282E).
T2 sequence: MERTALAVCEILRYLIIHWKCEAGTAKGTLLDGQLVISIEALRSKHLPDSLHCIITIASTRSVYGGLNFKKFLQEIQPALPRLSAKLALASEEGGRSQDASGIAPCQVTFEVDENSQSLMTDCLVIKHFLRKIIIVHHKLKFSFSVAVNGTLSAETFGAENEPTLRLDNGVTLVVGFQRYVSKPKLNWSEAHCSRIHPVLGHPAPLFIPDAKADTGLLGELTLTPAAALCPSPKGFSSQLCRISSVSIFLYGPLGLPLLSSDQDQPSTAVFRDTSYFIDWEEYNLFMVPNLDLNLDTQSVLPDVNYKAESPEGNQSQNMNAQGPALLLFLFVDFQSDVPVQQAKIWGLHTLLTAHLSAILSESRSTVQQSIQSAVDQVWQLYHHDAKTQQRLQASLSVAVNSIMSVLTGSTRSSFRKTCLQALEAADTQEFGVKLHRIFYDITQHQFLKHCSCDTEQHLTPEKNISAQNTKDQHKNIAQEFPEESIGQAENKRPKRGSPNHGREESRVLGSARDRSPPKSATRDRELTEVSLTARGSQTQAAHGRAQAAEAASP
The experiment in a line: fluorescence anisotropy.

Data set [4] concerns the target T1, TOPOVIBLΔC25 (monomer). The experiment in a line: competition.

In data set [1], HSP70 (natural protein) yielded a stoichiometry N of 2.

B1: 2B60 dsDNA (dsDNA)
DNA 1: AGAGATGGCCCTTTCCAGAAGCTACCACCATCATGTCTTCTACCACTGTGCACTAATATA
DNA 2: TATATTAGTGCACAGTGGTAGAAGACATGATGGTGGTAGCTTCTGGAAAGGGCCATCTCT
B1: in the data set with TOPOVIBLΔC25 (monomer) [2], the Kd came out at 900 nM.

B2: U40 dsDNA (dsDNA)
DNA 1: CTATTGAAAAAGGAAGAGTATGAGTATTCAACATTTCCGC
DNA 2: GCGGAAATGTTGAATACTCATACTCTTCCTTTTTCAATAG
Consider B2, for which the binding result with TOPOVIBLΔC25 (monomer) [3] is “binds”.

B3: 2B20 dsDNA (dsDNA)
DNA 1: GCTACCACCATCATGTCTTC
DNA 2: GAAGACATGATGGTGGTAGC
As for B3, binding in the data set with TOPOVIBLΔC25 (monomer) [2] was characterised by a dissociation constant (Kd) of 1610 nM.

B4: 2B70 dsDNA (dsDNA)
DNA 1: AGACAAGAGATGGCCCTTTCCAGAAGCTACCACCATCATGTCTTCTACCACTGTGCACTAATATAGTGTG
DNA 2: CACACTATATTAGTGCACAGTGGTAGAAGACATGATGGTGGTAGCTTCTGGAAAGGGCCATCTCTTGTCT
Take B4: the affinity in the data set with TOPOVIBLΔC25 (monomer) [2], expressed as Kd, was 1500 nM.

B5: 2B39 dsDNA (dsDNA)
DNA 1: CTTTCCAGAAGCTACCACCATCATGTCTTCTACCACTGT
DNA 2: ACAGTGGTAGAAGACATGATGGTGGTAGCTTCTGGAAAG
Take B5: the equilibrium dissociation constant (Kd) with TOPOVIBLΔC25 (monomer) [2] was determined as 650 nM. In the data set with TOPOVIBLΔC25 K281E K282E, this molecule gave a binding signal of 3 mutant/wild type Kd ratio.

B6: ss2B39 (labeled) (ssDNA)
DNA: CTTTCCAGAAGCTACCACCATCATGTCTTCTACCACTGT
For B6, binding with TOPOVIBLΔC25 (monomer) [2] was characterised by a dissociation constant (Kd) of 310 nM.

B7: ss2B39 (unlabeled competitor) (ssDNA)
DNA: ACAGTGGTAGAAGACATGATGGTGGTAGCTTCTGGAAAG
As for B7, the binding result in the data set with TOPOVIBLΔC25 (monomer) [4] is recorded as “binds”.
